# T1: Bacillus subtilis Sfp (Surfactin synthetase activating enzyme, 4'-phosphopantetheinyl transferase) (Bacillus subtilis, UniProt P39135 1-224)
# T1 sequence (looked up): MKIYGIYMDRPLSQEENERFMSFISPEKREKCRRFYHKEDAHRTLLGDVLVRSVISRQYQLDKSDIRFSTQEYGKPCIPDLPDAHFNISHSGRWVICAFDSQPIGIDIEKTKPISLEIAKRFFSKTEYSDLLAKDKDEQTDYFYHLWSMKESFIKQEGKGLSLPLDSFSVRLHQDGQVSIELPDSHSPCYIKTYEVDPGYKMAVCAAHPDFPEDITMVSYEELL
# Target: T1, Bacillus subtilis Sfp (Surfactin …)
# Experiment: NMR titration
binder,measurement,value
S36A mutant of E. coli acyl carrier protein (natural protein) STIEERVKKIIGEQLGVKQEEVTNNASFVEDLGADALDTVELVMALEEEFDTEIPDEEAEKITTVQAAIDYINGHQA,binding result,binds
